Source: the DeepSol protein solubility set

Assay: soluble on expression in E. coli; label from the status in PepcDB or PDB records

Sequence	soluble on expression in E. coli
YFEVNITMSSGLWSQEKVTSPYWEERIFYLLLQECSVTDKQTQKLLKVPKGSIGQYIQDRSVGHSRIPSAKGKKNQIGLKILEQPHAVLFVDEKDVVEINEKFTELLLAITNCEERFSLFKNRNRLSKGLQIDVGCPVKVQLRSGEEKFPGVVRFRGPLLAERTVSGIFFGVELLEEGRGQGFTDGVYQGKQLFQCDEDCGVFVALDKLELIEDDDTALESDYAGPGDTMQVELPPLEINSRVSLKVGETIESGTVIFCDVLPGKESLGYFVGVDMDNPIGNWDGRFDGVQLCSFACVESTILLHINDIIPESVTQERRPPKLAFMSRGVGDKGSSSHNKPKATGSTSDPGNRNRSELFYTLNGSSVDSQPQSKSKNTWYIDEVAEDPAKSLTEISTDFDRSSPPLQPPPVNSLTTENRFHSLPFSLTKMPNTNGSIGHSPLSLSAQSVMEELNTAPVQESPPLAMPPGNSHGLEVGSLAEVKENPPFYGVIRWIGQPPGLNEVLAGLELEDECAGCTDGTFRGTRYFTCALKKALFVKLKSCRPDSRFASLQPVSNQIERCNSLAFGGYLSEVVEENTPPKMEKEGLEIMIGKKKGIQGHYNSCYLDSTLFCLFAFSSVLDTVLLRPKEKNDVEYYSETQELLRTEIVNPLRIYGYVCATKIMKLRKILEKVEAASGFTSEEKDPEEFLNILFHHILRVEPLLKIRSAGQKVQDCYFYQIFMEKNEKVGVPTIQQLLEWSFINSNLKFAEAPSCLIIQMPRFGKDFKLFKKIFPSLELNITDLLEDTPRQCRICGGLAMYECRECYDDPDISAGKIKQFCKTCNTQVHLHPKRLNHKYNPVSLPKDLPDWDWRHGCIPCQNMELFAVLCIETSHYVAFVKYGKDDSAWLFFDSMADRDGGQNGFNIPQVTPCPEVGEYLKMSLEDLHSLDSRRIQGCARRLLCDAYMCMYQSPTMSLYK	soluble
MSAIEVKNLVKKFHGQTVLHGIDLEVKPGEVVAIIGPSGSGKTTLLRSINLLEQPEAGTITVGDITIDTARSLSQQKSLIRQLRQHVGFVFQNFNLFPHRTVLENIIEGPVIVKGEPKEEATARARELLAKVGLAGKETSYPRRLSGGQQQRVAIARALAMRPEVILFDEPTSALDPELVGEVLNTIRQLAQEKRTMVIVTHEMSFARDVADRAIFMDQGRIVEQGAAKALFADPEQPRTRQFLEKFLLQ	soluble
MPKEILMPELAESVVEGEILKWLVEEGDYLKKDQPFVEVMTDKVTVELPSPYEGVLLKKLAKEGEVVKVHAPIALIAEPGEAVEGVKEAPPVQAVEERSIVEPGLPAKEEKEDLSLFKPDPTQVAVKNPFLSGEKPQEGARPGRVLAVPAARKLARELGIPIEEVPGSGPLGRVRVEDVRAYAERRKAPPERPEEGPQVLPAGFPPPPKYAPPKGYEHLEERVPLRGIRRTIAQGLWQSHLYTVRTLNVDEADLTELVRLRERLKPQAEAQGVKLTYLPFIVKAVVRALKKFPMLNTSLDEERQEIVYKRYYHIGLAVATERGLIVPVVRDADRKSVLELAQEIAELSQKAREGRLAPEEVTGSTFTITNIGSVGATLSFPIIHLPDAAILGVHSIRKRPWVMPDGSIRPRDIMFLSLSFDHRLVDGAEAAMFTREVIRLLENPDLLLLEM	soluble
MKTAIIQLPGLNRDRDMVAALHHITGVEPLKIWQTESTIPDVDVIVIPGGFSYGDYLRCGAIGARTPVLQAVREKAQKGVTVIGICNGFQILLEAGLLPGTLMRNTSLKFVCREIKLEVVNVNTKFSRYYSKGQIICCPVAHHDGNYFVDSETLKQMEENEQIIFRYAENTNPNGSVNDIAGIINKAGNILGMMPHPENFIEPAHGGTDGRLFFQSALELAKG	not soluble
MACHELSALRIAIGELLEKEAHDLLHEREELAPVLGQRPELKRLAEAKTLPALEEALREALLHLEERAAQEPEEPYWRGLLLAVEAMEGRLKALRAEAEALYQDLDALHGRLHRLFPRRR	soluble
METFYTIGRSPRADIRIKSQFVSRIHAVLVRKSSDDVQAAYRIIDGDEDGQSSVNGLMINGKKVQEHIIQTGDEIVMGLEHHHHHH	not soluble
MDIQIKRAYEPADPADGCRILVDRLWPRGLTKQQVACDLWLKEIAPTADLRKWFNHDPAKWAEFQRRYRDELSVNPCVKELLDRAAKGRLTLLYGARDAECNQAVVLRDYLLERN	not soluble
MSLKITRIEAIPYAIPYSRPLKFASGEVSTAEHVLVRIHTDAGICGVADTPPRPYTYGETQDSIVSVVTKVFAPQLIGMDPMDRSKVQQLLGRTVNNPTAKGALDIALWDVIGISLGTPVHKLLGGFSDSMRVSHMLGFKAAAELLEEALRFRETYGIDTFKLKVGRRPLSLDVEACHVLREGLGADTEIYLDANRGWTANEAMEVLRRTEGLGLSMLEEPCDAAEAMGRRRLVQHSSIPIVGDESVPNLGDVSRELLSGGSNAICIKTARSGFTEAQQILGLCEGLGVDVTMGNQIDTQVGSLATVTFGAAFEASSRRAGELSNYLDMTDDLLAEPLEITDGAIRVRKAPGVGAAIDADKLQKYREGHHHHHH	soluble
MANNVTFWFDVSCPFCWITSRWIKEVEKVRDISVTWVPMSLSVLNDGRDELPQDYKDKMKANWGPARVFAAVATEQPDRVDALYTAMGTRIHNQGEGGKQGYAAYDAIIADALEDVGLPASYAAVANTDTWDNALAAFHATAMDAVGNDVGTPVVKLGDTAFFGPVLTRIPRGEEAGMLFDASFQLAAYPHFFEIKRTRTESPQFD	not soluble
MSLLRETLESGKFAVTTEMAPPKGTDLSHLIECAKPLVGRVHAANVTDFQSAVMRATSLATCKLLKDAGLEPVIQITGRDRNRIAIQGEMLSAGVFGINNLLALTGDHTSVGDHPQAKGVFDLDSVGILQTAETLMAGTDMAGNKLKGSPDFYLGASVTPEYSPIEVQLLKMKKKIKAGAKFFQTQALYDINTMRKFRELTRDMDCKVLAGIVPLKSPGMAKFMTANVPGIFVPDEQIERLRAAGKENWVSEGIKMAGELIKQLKEEDLCDGVHIMAIGAEENIPAILDAAGL	not soluble
MGSDKIHHHHHHMLIEEIMKRNVVTIHEQTTIKEAYQTMILEKFRHLPVITKSKDVIGIVTDQDIRDASPSIFHQDEHQEDLQKPVSSIMTKDVITVHPLNSVAETARLLYENRISCLPVTEGEQLVGIVTDTDVLHTLVELMGAHQPSSQIYVRVENKAGQLADVAAIMKQRQMNIASVLVYPHREDERYKILAFRIQSMDPRGTISDLQSKGYHVLWPNIPGIAT	not soluble
MSLNFEYIINSLLETIKTYNFFVDWEKIENNIKKIEKRLHILNYLIGKENFKEEFFELLKEYPEVITVFPILIAVRDNKITILNENMELETLEFKEKKYLTDEEIERYYKFFKETGLEDLLKNRKIKNLVDYVFGVEVGMDTNARKNRIGDLMENIVKKYIENLCKQNKNLDYIFQATKDKIKQKWGINLTLDKTNRKFDFAVFNKNTKKLYLIEVNFYSGGGSKLKATAGEYRSLNEFIKNNNNNVQFIWITDGKGWNTAKNPLKESFNSGVVILNLKMVKEGLLKEILTQEGHHHHHH	soluble
MNIRPLHDKLIVERLEVENKSEGGIVLTSQSVKKSNRGKVVAVGLGRPLKNGDRARMEVKTGDQIIFNDGYGVKTEKVDGKEYLILSESDVLAIVE	soluble
GPGSMNPSKVVQGTPNSVEWDPRNPPDTPFFTETTAVERSRIPTEYIRRMEEATRLYAMHREGRHALHTACQIASWTVATQCCWLCVGVWLTVRGYRHANPAHSFVSGMTSNKVFCRVFTPIPVLGLTMMGVTAAQLPRDVKVLITAREGRMEEENCMKSAFDQCMAALAEGRLAMGKEGILTA	not soluble
LARMSEREIDISLGTTVGRSLWRLAQGHDDREVAPRAIAKQISVEHTYPKDLVTSRAVDTAIIRASRESHRRLLDDGRGARTVSVKLRMADFRIESRSATLPYATDNLDTVTATALKLARYPDEVGPIRLVGVGLSGLEDARQDILFPELDRVVPVKDTDFEVGVSDPHDSDLEISTTDESPTAIGWRATQDIWHPDYGHGWVQGLGHGKITVRFETRTTGPGKVRTFDTNDALLSSADPINSLDWS	not soluble
ITELTNIHLIKGNLQANSKNEVFAELAQMLLENNRISNKEDFLNDIEIRERLSVTSMDGIAYPHSKSKAVTKPAIAVGVKHEGIEYGDEEGIKPTVFFMIASPDNGADHHIYVLQELFGKFSEEFIEDIHNAKNEHQILNISIQS	soluble
MGSDKIHHHHHHMIRFENISKQNSHRILFLDSSAALNRGEKIGLVGPNGAGKTTLFRMITGEEVPDAGQVSIEKQVSIGYFNQDVGEMSGRSAVAEVMDGAGPVSSVAAEMAELEAAMCDPDRDDMDAVVERYGEVQARFEELGGYELEGRAREVLAGLSFSQEMMDGDVGALSGGWKMRVALGRILLMRPDAMLLDEPSNHLDIESLIWLEEFLKGYDGALLMTSHDREFLNRIVTKIIEIDGGSLNTYSGDYAFFERQRAQNEKQQQAQFERQQAMLAKEIKFIERFKARASHAAQVQSRVKKLDKIERFEPPRRRQTVSFDFPPAPRSGDDVAVFKSVHKGYGSRAIYQGLDLIIRRKERWCVMGVNGAGKSTLLKLVAGAADPDSGTVTVGASVKMGYFSQHAMELLDGERTVYESLEDRFPQANQGSLRTLAGCFGFSGDDVEKKCRVLSGGEKARLVMAIMLYNPPNFLVLDEPTNHLDLDTKQMLIAALANYEGTMLFVSHDRHFLAALSNRVLELTPEGVHQYSGGYTEYVARTGHEAPGLRS	not soluble
MAPLVAVVSSPRARLFACFLRLGTQQAGPLQLHTGACCTAKNHYEVLVLGGGAGGITMATRMKRRVGAENVAIVEPSERHFYQPIWTLVGAGAKELSLSVRSTLSVIPSGVQWIQDRVAELNPDENCIRTDSGKEISYRYLIIALGIQLDYEKIKGLPEGFAYPKIGSNYSVKTVEKTWKALQDFKEGNALFTFPNTPVKCAGAPQKIMYLSEAYFRKTGKRPKANIIFNTALGTIFGVKKYADALQEIIRERDVSVNYKHNLIEVRPDKQEAVFEILDKPGETHVIPYEMLHVTPPMSAPDVLKRSPVADSAGWVDVDKETLQHKKYPNVFGIGDCTNLPTSKTAAAVAAQSGILDRTMCLIMKNQRPIKKYDGYTSCPLVTGYNRVILAEFDYTAQPLETFPFDQSKERITMYLMKADMMPFLYWNMMLRGYWGGPAFLRKLFHLGMN	not soluble
MQVNRLPFFTNHFFDTYLLISEDTPVGSSVTQLLARDMDNDPLVFGVSGEEASRFFAVEPDTGVVWLRQPLDRETKSEFTVEFSVSDHQGVITRKVNIQVGGVNDNAPTFHNQPYSVRIPENTPVGTPIFIVNATDPDLGAGGSVLYSFQPPSPFFAIDSARGIVTVIQELDYEVTQAYQLTVNATDQDKTRPLSTLANLAIIITDLEHHHHHH	soluble
GMAEPKFTSFTTADFINDVDMELFIDAVEKTAPVWVKEMKSRGLLKFSMNRVWNKGEVFRVVMTYEYKDRASFEANIAYLEDTFGKNPVFLQLVTTAKFTTSRCLVVMEV	soluble
MGSDKIHHHHHHMSTLIRSALLVKFSEIARTLSVDPERMIRHVGADRSCIVSPDLHVPEPWLANVLDASEQASSGAAVGLLMAESWRLSDFGPISLLLQHQPTLRHALGQLETYRHLLSESVLVHVEETDAVAIVRLQLITDRPTPGRQPVELSIGAMLCLMKSMLGGKWKPRSVHFTHGAPANLHVHRRLFGTNVEFGSDFDGIVLDRQDLDRPNPLGDVNLARYAREFLDQHPRGRRISTASNVRRSVHMLLPRGQGSIEQVGQQLGMSARTLQRRLGQEGQEFSSLVNEVRRGLASRYLADLRYPVSQVAMLVGFAEVSTFSRWFSSQFGMPPTRWRTGAEH	not soluble
